Source: patent US20230002478A1 (TWIST BIOSCIENCE, published 2023)
Read-outs that look alike come from different tables or passages of the source.

Key:
[1] = target: T1, SARS-CoV-2 S1 (SARS-CoV-2, UniProt P0DTC2 16-685); assay: SPR
T1 construct: range 16-685

[2] = target: T1, SARS-CoV-2 S1; assay: SPR; remark: listed apart in the source
[3] = target: T2, S1 domain of SARS-CoV S protein (SARS-CoV, UniProt P59594 14-667); assay: SPR
T2 construct: domain: S1

[4] = target: T2, S1 domain of SARS-CoV S protein; assay: cross-binding assay on the S1 domain of SARS-CoV S protein

Row | Binder | Kd [1] [nM] | Kd [2] [nM] | binding result [3] | other results
1 | 5-1 (Fc fusion) EVQLVESGGGLVQPGGSLRLSCAASGGTFSSIGMGWFRQAPGKEREFVAAISWDGGATAYADSVKGRFTISADNSKNTAYLQMNSLKPEDTAVYYCAKEDVGKPFDWGQGTLVTVSS | 6.6 |  |  | 
2 | 6-3 (Fc fusion) EVQLVESGGGLVQPGGSLRLSCAASGFTFSPSWMGWFRQAPGKEREFVATINEYGGRNYADSVKGRFTISADNSKNTAYLQMNSLKPEDTAVYYCARVDRDFDYWGQGTLVTVSS | 32 | 11 | no binding | 
3 | 6-63 (Fc fusion) EVQLVESGGGLVQPGGSLRLSCAASGQTFNMGWFRQAPGKEREFVAAIGSGGSTSYADSVKGRFTISADNSKNTAYLQMNSLKPEDTAVYYCWRLGNDYFDYWGQGTLVTVSS | 46 | 65 | no binding | 
4 | 6-42 (Fc fusion) EVQLVESGGGLVQPGGSLRLSCAASGDTYGSYWMGWFRQAPGKEREFVAVITSGGSTNYADSVKGRFTISADNSKNTAYLQMNSLKPEDTAVYYCTHVQNSYYYAMDVWGQGTLVTVSS |  |  |  | binding result [1]: binds
5 | 2-2 (antibody, V domains shown) VH: EVQLLESGGGLVQPGGSLRLSCAASGFTFSRHAMNWVRQAPGKGLEWVSGISGSGDETYYADSVKGRFTISRDNSKNTLYLQMNSLRAEDTAVYYCARDLPASYYDSSGYYWHNGMDVWGQGTLVTVSS VL: DIQMTQSPSSLSASVGDRVTITCRASQTINTYLNWYQQKPGKAPKLLIYSASTLQSGVPSRFSGSGSGTDFTLTISSLQPEDFATYYCQQSYSTFTFGQGTKVEIK | 21 |  |  | 
6 | 2-5 (antibody, V domains shown) VH: EVQLLESGGGLVQPGGSLRLSCAASGFTFSDFAMAWVRQAPGKGLEWVSAISGSGDITYYADSVKGRFTISRDNSKNTLYLQMNSLRAEDTAVYYCAREADGLHSPWHFDLWGQGTLVTVSS VL: DIQMTQSPSSLSASVGDRVTITCRASQSIHTYLNWYQQKPGKAPKLLIYAASALASGVPSRFSGSGSGTDFTLTISSLQPEDFATYYCQQSYSAPPYTFGQGTKVEIK |  |  |  | binding result [4]: binds
